The values below come from patent US6265535A, “Peptides and peptide analogues designed from binding sites of tumor necrosis factor receptor superfamily and their uses” (The Trustees of the University of Pennsylvania, priority 1997, dated 2001).

One data set relates to L929 cells. Briefly: Cytotoxicity assay: inhibition of TNF-α-induced cytolysis of L929 cells (MTT). It counts as cell-based, murine. The conditions noted are these: FIG. 7. The protocol: FIG. 7. Inhibition of TNF-α-induced cytolysis of L929 cells by peptides derived from TNF-R. […] A murine fibroblast cell line, L929, was maintained in Dulbecco's modified Eagle's medium supplemented with 10% FCS, and the medium was replaced with serum free AIM-V medium (GIBCO BRL) immediately before the cells were used for the cytotoxicity assay. L929 cells were seeded at a density of 2×10^5 cells/ml in 96-well microtiter plates, and incubated for hr. at 37° C. under 5% CO2 in air. […] Immunol. Methods 119:203). Briefly, 10 μl of a 10 mg/ml solution of MTT were added to each well for 2 hr. at 37° C., and the color of the formazan product was developed by an overnight incubation at 37° C. with 100 μl of extraction buffer (20% SDS in 50% DMF, pH 4.7). The optical density of colored formazan was measured at 600 nm.

Data set [1] has as its target T1, TNF-α binding to TNF-R p55 expressed on U937 cells (Homo sapiens, UniProt P01375).
T1 construct: endogenous in cells; host or cells: U937 (human leukemia cell line)
As to the kind of experiment: Flow cytometry (FACS) of TNF-α binding to its cognate receptor on U937 cells, detected with anti-TNF-R antibody htr-9. It counts as cell-based. The settings on record: FIG. 6. An excerpt: FIG. 5. […] 1=U937 cells stained with fluorescein-conjugated secondary antibody. 2=U937 cells stained with an anti-TNF receptor antibody (htr-9) and secondary antibody. 3=U937 cells stained with anti-TNF-R antibody in the presence of TNF-α and secondary antibody.
FIG. 6. […] The results represent the means from two independent experiments.
A human leukemia cell line, U937, was maintained in RPMI-1640 medium supplemented with 10% FCS. In order to quantitate the binding of TNF-α to its cognate receptor expressed on U937 cells, 1×10^5 cells were re-suspended in PBS containing 0.5% BSA and 0.05% NaN3 (binding buffer). […] Then, 50 μl of an anti-TNF receptor antibody at 3 μg/ml in binding buffer were added to the cells for 1 hr. at 4° C. The cells were washed in binding buffer and stained with 50 μl (10 μg/ml) of fluorescein-conjugated goat ant-mouse IgG secondary antibody (GIBCO BRL, Gaithersburg, Md.) for 30 min. at 4° C. in the dark. Following washing in binding buffer, the cells were analyzed using FACScan flow cytometer (Becton Dickinson). The gates were set on the live cell population, and the degree of inhibition of TNF-α/cell binding by peptides was calculated on the basis of mean values of each histogram.
(In general: In flow cytometry, cells or beads pass a laser one at a time.)

Data set [2] has as its target T2, Human recombinant TNF-α (human, UniProt P01375). As to the kind of experiment: competitive radioreceptor assay, dose-response, 125I-TNF-α on immobilized TNF-R-IgG.
In data set [3] the target is T2, Human recombinant TNF-α. Briefly: flow cytometry on U937 cells, TNF-α preincubated with peptide, read out with htr-9.
The target of data set [4] is T2, Human recombinant TNF-α. As to the kind of experiment: competitive radioreceptor assay, 125I-TNF-α on immobilized TNF-R-IgG.

Bridge positions count the residues as written; N and C are the ends. Ends that are not written are not given here.

T1 sequence (P01375 77-233 limits assumed): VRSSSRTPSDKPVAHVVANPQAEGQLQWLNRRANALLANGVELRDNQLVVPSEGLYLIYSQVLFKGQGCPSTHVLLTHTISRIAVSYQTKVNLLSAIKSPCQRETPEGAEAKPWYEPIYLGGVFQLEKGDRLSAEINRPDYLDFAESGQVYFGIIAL

With “YC WSQNL CY (YCWSQNLCY; disulfide 2-8 (inferred)) [WP9Q, exocyclic peptide from TNF-R loop 1 of domain 3, Gln instead of Glu]”, in the data set on L929 cells, the “inhibition of TNF-α-induced cytotoxicity of L929 cells (in words)” value is given as “dose-dependent inhibitory activity” and the “inhibitory effect on TNF-α-induced cytotoxicity relative to WP9QY” value is “about half of the effects of WP9QY”. Also, the “inhibition of TNF-α binding to U937 cells in dose-response assay (in words)” value in data set [1] was “inhibited by each peptide in a dose-dependent manner”.
As to `CC(C)C[C@@H]1NC(=O)[C@H](Cc2ccc(O)cc2)NC(=O)[C@H](CCC(N)=O)NC(=O)[C@H](CO)NC(=O)[C@H](Cc2c[nH]c3ccccc23)NC(=O)[C@@H](NC(=O)[C@@H](N)Cc2ccc(O)cc2)CSSC[C@@H](C(=O)N[C@@H](Cc2ccc(O)cc2)C(=O)O)NC1=O` [WP9QY, YC WSQYL CY], the “cells protected against TNF-α-induced apoptosis/cytotoxicity” value with L929 cells (peptide at 75 μM, TNF-α 50 pg/ml plus ACT-D 1 μg/ml) is approximately 90%.
With “YC ASENH CY (YCASENHCY; disulfide 2-8 (inferred)) [WP5JY, exocyclic peptide from TNF-R loop 1 of domain 2]”, the “inhibition of TNF-α binding to U937 cells in dose-response assay (in words)” value in data set [1] is given as “inhibited by each peptide in a dose-dependent manner”.
In the case of YCWSQYLCY (disulfide 2-8 (inferred)) [WP9QY], the IC50 (in general, the concentration needed to halve the response being measured) with Human recombinant TNF-α [2] came out at 5 µM; with Human recombinant TNF-α [3], 75 µM.
Consider YCWSQNLCY (disulfide 2-8 (inferred)) [WP9Q], for which, in the data set with Human recombinant TNF-α [4], the “fold activity against the best WP5 peptides” value stood at 2 fold.
